Assay results: patent publication US20240109859

Molecular target: T1, IRF3 wild-type (UniProt Q14653 Q14653:1-427)
T1 sequence: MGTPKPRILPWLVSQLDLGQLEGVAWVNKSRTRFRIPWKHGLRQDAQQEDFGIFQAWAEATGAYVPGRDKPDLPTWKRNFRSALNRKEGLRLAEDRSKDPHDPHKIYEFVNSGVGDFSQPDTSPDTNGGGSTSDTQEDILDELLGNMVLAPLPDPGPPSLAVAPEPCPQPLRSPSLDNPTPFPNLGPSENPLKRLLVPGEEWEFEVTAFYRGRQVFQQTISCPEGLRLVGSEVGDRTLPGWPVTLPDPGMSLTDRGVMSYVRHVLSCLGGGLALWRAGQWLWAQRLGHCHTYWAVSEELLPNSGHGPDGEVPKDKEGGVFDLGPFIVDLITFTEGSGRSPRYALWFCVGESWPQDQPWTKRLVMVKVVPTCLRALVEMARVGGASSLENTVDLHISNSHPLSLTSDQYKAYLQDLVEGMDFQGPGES
Test: EMSA; 2.5 nM probe, 10 mM Tris pH 7.5, 50 mM NaCl, 2 mM DTT, room temperature 45 min; cold probe competition
Settings: tags: Flag, expressed in HEK293T; label: 32P
Experimental: Electrophoresis Mobility Shift Assay (EMSA). Flag-IRF3-WT and Flag-IRF3-N85D were purified from HEK293T cells. Binding reactions were carried out in 20 μl volumes containing: 2.5 nM P32 labeled DNA probe targeting IFN-β promoter (forward: […] (SEQ ID NO: 41); reverse: […]) (SEQ ID NO: 42); 10 mM Tris pH 7.5; 50 mM NaCl; 2 mM DTT and indicated purified Flag-IRF3-WT or Flag-IRF3-N85D. Unlabeled probe (cold probe) was used for competition assay. Reactions were incubated at room temperature for 45 min, and resolved in 6% polyacrylamide gels (29:1 crosslinking) with 0.5×TBE running buffer at […] on ice until the loading dye front reached the bottom of the gel. Gels were dried and analyzed using phosphorimaging instrumentation.

B1: IFN-beta promoter probe (dsDNA)
DNA 1: GCACCGCTAACCGAAACCGAAACTGTGC
DNA 2: GCACAGTTTCGGTTTCGGTTAGCGGTGC
B1: binds.
